Test results as given in US20260274955A1 (JANUX THERAPEUTICS, published 2026).

Key:
[1] = biological target: T1, Anti-CD28 Fab (SEQ ID NOs: 202, 203); assay: phage binding ELISA, Fab on plate;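 further: clonal phage supernatant ELISA, wells preincubated with CD28 antigen or blocking buffer only, then bound phage detected using HRP-linked anti-M13 antibody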
T1 construct: biotinylated and captured on neutravidin coated plates in the phage ELISA
T1 sequence (VH, as listed by the source, chain 1 of 2): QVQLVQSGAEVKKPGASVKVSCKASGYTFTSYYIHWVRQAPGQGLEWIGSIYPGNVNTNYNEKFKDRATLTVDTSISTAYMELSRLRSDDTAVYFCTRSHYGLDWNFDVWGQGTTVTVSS
T1 sequence (VL, as listed by the source, chain 2 of 2): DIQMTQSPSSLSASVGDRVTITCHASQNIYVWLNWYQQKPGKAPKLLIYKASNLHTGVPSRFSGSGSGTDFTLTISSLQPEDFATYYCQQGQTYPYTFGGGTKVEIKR
Method: After panning, phage infected bacteria were plated out and colonies picked into 96 well blocks. Clonal phage was then amplified and separated from bacterial cells via centrifugation.
Clonal phage were harvested as crude supernatants and screened via standard ELISAs. […] Prior to the addition of clonal phage, wells were incubated with blocking buffer and CD28 antigen or blocking buffer alone. Without washing or aspirating, clonal phage supernatants were then added to the wells and incubated for a short time. Wells were then washed followed by detection of bound phage using a horse radish conjugated anti-M13 antibody. Clonal phage of interest were then sent for sequence analysis.

[2] = biological target: Anti-CD28 Fab (SEQ ID NOs: 202, 203); assay: phage binding ELISA on captured Fab;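 further: clonal phage supernatants added briefly to wells pre-incubated with CD28 antigen or with blocking buffer only, then washed, bound phage read by ELISA using HRP-coupled anti-M13 antibody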
Target sequence in this assay (VH, as listed by the source, chain 1 of 2): as the sequence (VH, as listed by the source, chain 1 of 2) above
Target sequence in this assay (VL, as listed by the source, chain 2 of 2): as the sequence (VL, as listed by the source, chain 2 of 2) above
Method: Clonal phage were harvested as crude supernatants and screened via standard ELISAs. […] Prior to the addition of clonal phage, wells were incubated with blocking buffer and CD28 antigen or blocking buffer alone. Without washing or aspirating, clonal phage supernatants were then added to the wells and incubated for a short time. Wells were then washed followed by detection of bound phage using a horse radish conjugated anti-M13 antibody.

Binder	Anti-CD28 Fab (SEQ ID NOs: 202, 203) signal [1]	Anti-CD28 Fab signal [2]
SCAAGASYPWPQCL [Phage-1023]	1.77	
TCAAGASYQWPLCF [Phage-1015]	1.79	
SCSAGFHYPWPICL [Phage-1017]	1.79	
TCAAGATYEWPYCF [Phage-980]	1.96	
TCAAGATYPWPSCL [Phage-1038]	1.73	
TCAAGATWPWPSCL [Phage-1065]	1.61	
YCEGHSWANLGKCL [Phage-85]		2.32
TCAAGATYEWPTCL [Phage-983]	1.96	
TCAAGAVWGWPLCF [Phage-1039]	1.73	
YCEGHSSEYMLKCL [Phage-103]		2.3
WCAAVFSYTWSPCL [Phage-981]	1.96	
YCSAGAQWPWPICL [Phage-1014]	1.79	
YCQGHLPMYMEKCL [Phage-80]		2.34
YCQGHLPMYMAKCL [Phage-77]		2.34
YCQGHLPIYMEKCL [Phage-132]		2.24
YCEGHLPMYMDKCL [Phage-140]		2.22
TCSAGFSLQLSICL [Phage-1022]	1.77	
LCKPGVPYQWPTCL [Phage-1018]	1.78	
YCEGHSAQYMSKCL [Phage-105]		2.29
SCAAGASYSWPACF [Phage-1016]	1.79	
YCDGHSREYIAKCL [Phage-106]		2.29
YCDGHSMEYMSKCL [Phage-139]		2.22
TCAAGAVWEWPMCF [Phage-1026]	1.76	

Binder	Anti-CD28 Fab (SEQ ID NOs: 202, 203) signal [1]	Anti-CD28 Fab signal [2]
MCTAGALYNWPTCL [Phage-1019]	1.78	
YCDGHAPQYMRKCL [Phage-101]		2.3
YCEGHLPQYMAKCL [Phage-81]		2.34
YCDGHLPQYMWKCL [Phage-107]		2.29
YCQGHAPEYMAKCL [Phage-110]		2.28
YCEGHSPEYMYKCL [Phage-138]		2.23
YCDGHLPLYLAKCL [Phage-133]		2.23
YCEGHAWEYMAKCL [Phage-129]		2.24
YCEGHAAEYMEKCL [Phage-104]		2.3
YCDGHSQEYMMKCL [Phage-111]		2.28
YCDGHVPEYMAKCL [Phage-108]		2.29
YCDGHLPIYMSKCL [Phage-84]		2.32
YCDGHLPMYMMKCL [Phage-109]		2.28
YCDGHLPQYMNKCL [Phage-134]		2.23
YCSGHLPQYMQKCL [Phage-112]		2.28
YCDGHSQEYMAKCL [Phage-131]		2.24
YCDGHSSEYMAKCL [Phage-113]		2.28
YCQGHLPEYMNKCL [Phage-130]		2.24
YCDGHSPLYMWKCL [Phage-82]		2.34
YCDGHSAEYMAKCL [Phage-137]		2.23
YCEGHLPEYMLKCL [Phage-87]		2.32
YCDGHLPMYMQKCL [Phage-83]		2.33
YCAGHLPEYMEKCL [Phage-128]		2.24

Binder	Anti-CD28 Fab (SEQ ID NOs: 202, 203) signal [1]	Anti-CD28 Fab signal [2]
YCDGHAKEYMWKCL [Phage-102]		2.3
PCAAGAMWPWPVCL [Phage-986]	1.95	
MCAAGAMYAWPTCL [Phage-1028]	1.75	
TCSAGAMYPWPWCV [Phage-1031]	1.75	
WCAEFFNYHWPLCF [Phage-1021]	1.77	
SCAAVFPYPWPPCF [Phage-1030]	1.75	
YCDGHLPEYREKCF [Phage-86]		2.32
LCTAGLAYNWPTCL [Phage-1024]	1.77	
TCAAGAAYTWPACF [Phage-982]	1.96	
MCSAGATYPWPMCL [Phage-1037]	1.73	
MCSAGATYPWPYCL [Phage-1057]	1.64	
WCAAVFSYSWPLCL [Phage-1032]	1.75	
LCEEFFHYSWPVCL [Phage-1034]	1.74	
TCAAGASFPWPWCL [Phage-1029]	1.75	
GCAAGFHYPWPLCL [Phage-1033]	1.74	
GCAAGAHYPWPFCL [Phage-1025]	1.76	
TCAAGANYPWPLCL [Phage-1027]	1.75	
GCAAGANYPWPLCL [Phage-1069]	1.59	
TCAAGAAWPWPHCL [Phage-1035]	1.73	
YCEGHLPEYMQKCM [Phage-136]		2.23
TCAAGAHYAWPECF [Phage-1040]	1.72	
TCAAGAHYPWPYCL [Phage-1020]	1.77	
